Data on 3 molecules can be found in US20050158311A1.

Common to all, as to assay: cell-based or functional assay
The target of assay [1] is endogenous Ryk of mouse (brain cell lysate; DRG explants) (mouse) (UniProt Q01887).
Assay [2] concerns the target over-expressed Ryk (from a transfected DNA construct expressing Ryk).
For assay [3], the target named is Dishevelled (overexpressed in 293T cells).
Assay [4] concerns the target endogenous Ryk of 293T cells (human) (UniProt P34925).
UniProt P34925, sequence (P34925 26-607 limits assumed): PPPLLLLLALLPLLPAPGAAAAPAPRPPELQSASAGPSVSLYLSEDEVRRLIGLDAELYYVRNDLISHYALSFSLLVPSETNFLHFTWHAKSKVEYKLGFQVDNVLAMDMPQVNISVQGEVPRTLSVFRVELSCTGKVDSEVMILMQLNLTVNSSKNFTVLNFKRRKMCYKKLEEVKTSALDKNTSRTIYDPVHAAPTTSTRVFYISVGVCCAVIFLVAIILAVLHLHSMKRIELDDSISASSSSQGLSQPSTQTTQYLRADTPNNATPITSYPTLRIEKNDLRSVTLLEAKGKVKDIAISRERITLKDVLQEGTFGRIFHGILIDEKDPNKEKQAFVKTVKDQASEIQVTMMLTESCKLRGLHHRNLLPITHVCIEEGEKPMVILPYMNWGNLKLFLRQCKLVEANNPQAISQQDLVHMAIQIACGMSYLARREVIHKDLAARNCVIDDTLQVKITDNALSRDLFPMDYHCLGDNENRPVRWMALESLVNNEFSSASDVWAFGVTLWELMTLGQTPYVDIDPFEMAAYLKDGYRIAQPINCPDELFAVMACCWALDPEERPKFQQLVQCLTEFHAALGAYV

UniProt Q01887, sequence (Q01887 35-594 limits assumed): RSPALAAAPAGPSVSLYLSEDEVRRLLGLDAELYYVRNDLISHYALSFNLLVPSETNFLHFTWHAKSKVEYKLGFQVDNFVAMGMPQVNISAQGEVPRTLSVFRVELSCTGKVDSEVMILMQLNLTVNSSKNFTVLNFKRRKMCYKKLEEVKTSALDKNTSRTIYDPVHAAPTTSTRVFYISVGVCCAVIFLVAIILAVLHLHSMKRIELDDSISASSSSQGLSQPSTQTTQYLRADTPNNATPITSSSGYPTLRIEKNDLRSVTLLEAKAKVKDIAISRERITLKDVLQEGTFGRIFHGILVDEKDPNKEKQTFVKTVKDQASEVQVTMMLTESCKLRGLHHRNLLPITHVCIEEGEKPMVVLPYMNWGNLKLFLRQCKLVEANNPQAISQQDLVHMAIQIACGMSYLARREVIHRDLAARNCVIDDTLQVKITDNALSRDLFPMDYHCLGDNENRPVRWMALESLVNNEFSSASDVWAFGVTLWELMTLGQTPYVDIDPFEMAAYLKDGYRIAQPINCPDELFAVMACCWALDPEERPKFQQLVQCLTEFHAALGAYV

Take “Wnt3a (Wnt3a conditioned medium) (ligand)”: in assay [1], the average length of neurites of DRG explants, Ryk siRNA mice against wild type came to 2 fold. In assay [2], this molecule returned an activation of the TCF-luciferase reporter of 5 fold. The molecule “over-expressed Ryk (from a transfected DNA construct expressing Ryk) (receptor)” came in with an activation of the TCF-luciferase reporter in assay [3] of 25 fold.

B1: Wnt-1 (cotransfected in the TCF-luciferase reporter assay) (ligand, UniProt P04628 28-370, looked up, species assumed)
Proto-oncogene Wnt-1: ANSSGRWWGIVNVASSTNLLTDSKSLQLVLEPSLQLLSRKQRRLIRQNPGILHSVSGGLQSAVRECKWQFRNRRWNCPTAPGPHLFGKIVNRGCRETAFIFAITSAGVTHSVARSCSEGSIESCTCDYRRRGPGGPDWHWGGCSDNIDFGRLFGREFVDSGEKGRDLRFLMNLHNNEAGRTTVFSEMRQECKCHGMSGSCTVRTCWMRLPTLRAVGDVLRDRFDGASRVLYGNRGSNRASRAELLRLEPEDPAHKPPSPHDLVYFEKSPNFCTYSGRLGTAGTAGRACNSSSPALDGCELLCCGRGHRTRTQRVTERCNCTFHWCCHVSCRNCTHTRVLHECL
In assay [4], B1 showed an activation of the TCF-luciferase reporter of 25 fold and a fold decrease in TCF-driven transcription in Ryk siRNA-containing 293T cells of 12 fold.
